Measured values reported in paper PMC4490564, “Molecular snapshots of the Pex1/6 AAA+ complex in action” (Nature Communications, 2015).

T1: Pex1GST (Pex1 with the C-terminal GST kept) (yeast, UniProt P24004 1-1043)
T1 construct: Pex1, yeast; PEX1 cloned into pRSFDuet-cGST (GST with a thrombin cleavage site); also called HisPex1GST; source: E. coli Tuner (DE3), purified; not shown: GST, C-terminal, kept
T1 sequence (looked up): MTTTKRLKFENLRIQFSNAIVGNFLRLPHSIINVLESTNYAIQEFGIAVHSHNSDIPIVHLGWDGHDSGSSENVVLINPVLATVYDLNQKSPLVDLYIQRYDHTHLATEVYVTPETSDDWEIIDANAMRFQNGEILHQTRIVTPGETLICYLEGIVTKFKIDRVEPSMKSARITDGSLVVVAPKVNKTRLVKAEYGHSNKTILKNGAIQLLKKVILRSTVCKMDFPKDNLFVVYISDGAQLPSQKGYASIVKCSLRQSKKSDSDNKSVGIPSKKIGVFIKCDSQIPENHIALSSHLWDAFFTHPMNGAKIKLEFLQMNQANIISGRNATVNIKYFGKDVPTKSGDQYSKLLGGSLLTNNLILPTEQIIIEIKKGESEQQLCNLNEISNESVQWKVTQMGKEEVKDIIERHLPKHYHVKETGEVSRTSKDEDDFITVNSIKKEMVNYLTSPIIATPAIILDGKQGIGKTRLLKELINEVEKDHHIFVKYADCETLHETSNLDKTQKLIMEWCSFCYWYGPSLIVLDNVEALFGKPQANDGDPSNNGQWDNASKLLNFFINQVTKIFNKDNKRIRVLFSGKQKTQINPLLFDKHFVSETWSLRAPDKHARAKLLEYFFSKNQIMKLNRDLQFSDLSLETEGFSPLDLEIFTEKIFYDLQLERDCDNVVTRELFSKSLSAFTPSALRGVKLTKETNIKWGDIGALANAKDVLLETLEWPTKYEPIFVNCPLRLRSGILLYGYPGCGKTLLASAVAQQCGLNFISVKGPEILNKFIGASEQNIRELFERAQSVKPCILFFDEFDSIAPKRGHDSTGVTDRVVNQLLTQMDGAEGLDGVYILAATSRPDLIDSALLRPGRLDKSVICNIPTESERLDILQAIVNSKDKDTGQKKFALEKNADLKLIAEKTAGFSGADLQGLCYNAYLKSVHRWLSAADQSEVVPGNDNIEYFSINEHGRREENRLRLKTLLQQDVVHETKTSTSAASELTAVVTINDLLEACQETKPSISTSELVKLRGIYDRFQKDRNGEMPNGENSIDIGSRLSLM

T2: Pex1 (wild type, from HisPex1GST after thrombin cleavage) (yeast, UniProt P24004 1-1043)
T2 construct: Pex1, yeast, type II AAA+ ATPase; PEX1 amplified from genomic DNA; 1,043 amino acids (from the range printed for Δ188PEX1); also called Pex1 of Pex1/6; source: E. coli Tuner (DE3), purified together with HisPex6 (Ni-NTA agarose, glutathione agarose, eluted by thrombin cleavage); not shown: GST, C-terminal, cleaved
T2 sequence (looked up): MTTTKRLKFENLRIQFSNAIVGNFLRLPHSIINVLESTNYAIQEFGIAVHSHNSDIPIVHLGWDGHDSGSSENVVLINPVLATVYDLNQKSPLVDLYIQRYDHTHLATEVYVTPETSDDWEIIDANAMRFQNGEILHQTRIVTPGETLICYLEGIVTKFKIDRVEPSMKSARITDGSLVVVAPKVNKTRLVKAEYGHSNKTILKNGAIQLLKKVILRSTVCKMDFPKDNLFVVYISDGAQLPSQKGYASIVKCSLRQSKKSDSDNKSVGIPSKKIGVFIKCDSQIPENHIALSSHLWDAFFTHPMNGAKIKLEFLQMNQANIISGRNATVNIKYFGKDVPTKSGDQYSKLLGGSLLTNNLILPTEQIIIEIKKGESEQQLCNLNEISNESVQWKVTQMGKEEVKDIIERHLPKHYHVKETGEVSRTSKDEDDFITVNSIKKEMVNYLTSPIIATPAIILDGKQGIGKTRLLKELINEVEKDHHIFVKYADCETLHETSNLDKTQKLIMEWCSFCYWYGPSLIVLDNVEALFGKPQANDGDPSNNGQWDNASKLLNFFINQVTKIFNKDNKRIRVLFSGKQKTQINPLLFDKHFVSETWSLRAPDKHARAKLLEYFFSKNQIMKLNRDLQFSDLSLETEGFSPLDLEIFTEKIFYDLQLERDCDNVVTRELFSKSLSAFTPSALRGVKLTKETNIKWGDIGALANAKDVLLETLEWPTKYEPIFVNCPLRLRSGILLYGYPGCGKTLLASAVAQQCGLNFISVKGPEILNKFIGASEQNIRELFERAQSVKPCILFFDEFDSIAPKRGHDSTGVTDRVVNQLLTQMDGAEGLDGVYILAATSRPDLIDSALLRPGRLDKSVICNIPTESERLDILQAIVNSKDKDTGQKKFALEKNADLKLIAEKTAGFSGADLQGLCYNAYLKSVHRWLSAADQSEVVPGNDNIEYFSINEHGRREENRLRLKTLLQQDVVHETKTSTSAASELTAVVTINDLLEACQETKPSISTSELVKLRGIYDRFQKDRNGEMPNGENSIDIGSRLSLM

T3: Pex6 (wild type, overexpressed in yeast) (yeast, UniProt P33760 1-1030)
T3 construct: Pex6, yeast; full-length PEX6 amplified from genomic DNA, in pRS425GAL or pYES2; also called Pex6 of Δ188Pex1/Pex6 and of Pex1WB/6; source: S. cerevisiae, overexpressed (2% galactose), purified (IgG Sepharose, TEV cleavage, glycerol gradient); not shown: protein A (ProA), C-terminal, cleaved
T3 sequence (looked up): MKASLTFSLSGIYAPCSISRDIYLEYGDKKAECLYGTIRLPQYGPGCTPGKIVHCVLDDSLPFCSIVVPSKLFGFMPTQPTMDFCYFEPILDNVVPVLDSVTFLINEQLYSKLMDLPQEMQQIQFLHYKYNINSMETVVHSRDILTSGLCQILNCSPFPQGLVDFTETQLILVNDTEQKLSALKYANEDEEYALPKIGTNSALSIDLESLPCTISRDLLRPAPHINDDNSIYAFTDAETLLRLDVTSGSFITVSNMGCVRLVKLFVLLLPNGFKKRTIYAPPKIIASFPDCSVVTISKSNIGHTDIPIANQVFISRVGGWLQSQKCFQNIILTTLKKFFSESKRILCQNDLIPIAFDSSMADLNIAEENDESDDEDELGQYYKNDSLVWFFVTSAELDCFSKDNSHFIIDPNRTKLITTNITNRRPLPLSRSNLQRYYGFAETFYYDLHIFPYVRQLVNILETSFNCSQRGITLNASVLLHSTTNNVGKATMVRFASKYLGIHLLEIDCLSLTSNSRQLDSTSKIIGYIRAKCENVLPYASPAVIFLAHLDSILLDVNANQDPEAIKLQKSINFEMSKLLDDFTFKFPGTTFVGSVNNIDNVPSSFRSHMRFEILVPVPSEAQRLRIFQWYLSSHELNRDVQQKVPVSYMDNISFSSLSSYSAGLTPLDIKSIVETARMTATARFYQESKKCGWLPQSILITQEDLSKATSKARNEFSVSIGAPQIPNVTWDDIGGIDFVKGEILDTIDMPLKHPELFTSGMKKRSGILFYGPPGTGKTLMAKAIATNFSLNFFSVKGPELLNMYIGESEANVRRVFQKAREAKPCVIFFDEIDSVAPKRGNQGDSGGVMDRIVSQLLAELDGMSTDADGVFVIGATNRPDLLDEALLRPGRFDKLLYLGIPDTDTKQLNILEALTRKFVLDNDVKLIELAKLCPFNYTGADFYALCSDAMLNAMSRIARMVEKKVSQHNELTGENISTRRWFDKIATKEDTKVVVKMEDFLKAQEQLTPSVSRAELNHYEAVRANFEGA


How the values were obtained:
Assay in all cases: negative stain EM (single-particle analysis, 3D reconstruction); purified complexes at 40-50 ug/ml, incubated with ATPγS (2.5 mM), ATP (5 mM), ADP (5 mM) or ADP-AlFx, adsorbed on carbon grids, stained with 2% uranyl acetate; threefold symmetry imposed
Details in all cases: both partners purified
[1] = biological target: T1, Pex1GST (Pex1 with the C-terminal GST …)
[2] = biological target: T2, Pex1 (wild type, from HisPex1GST after …)
[3] = biological target: T3, Pex6 (wild type, overexpressed in yeast)

binding result [1] | binding result [2] | binding result [3] | Binder
binds | binds |  | Pex6 (wild type, HisPex6) (natural protein, yeast, UniProt P33760 1-1030, looked up, Pex6, yeast, type II AAA+ ATPase; PEX6 amplified from genomic DNA; also called Pex6 of Pex1/6) MKASLTFSLSGIYAPCSISRDIYLEYGDKKAECLYGTIRLPQYGPGCTPGKIVHCVLDDSLPFCSIVVPSKLFGFMPTQPTMDFCYFEPILDNVVPVLDSVTFLINEQLYSKLMDLPQEMQQIQFLHYKYNINSMETVVHSRDILTSGLCQILNCSPFPQGLVDFTETQLILVNDTEQKLSALKYANEDEEYALPKIGTNSALSIDLESLPCTISRDLLRPAPHINDDNSIYAFTDAETLLRLDVTSGSFITVSNMGCVRLVKLFVLLLPNGFKKRTIYAPPKIIASFPDCSVVTISKSNIGHTDIPIANQVFISRVGGWLQSQKCFQNIILTTLKKFFSESKRILCQNDLIPIAFDSSMADLNIAEENDESDDEDELGQYYKNDSLVWFFVTSAELDCFSKDNSHFIIDPNRTKLITTNITNRRPLPLSRSNLQRYYGFAETFYYDLHIFPYVRQLVNILETSFNCSQRGITLNASVLLHSTTNNVGKATMVRFASKYLGIHLLEIDCLSLTSNSRQLDSTSKIIGYIRAKCENVLPYASPAVIFLAHLDSILLDVNANQDPEAIKLQKSINFEMSKLLDDFTFKFPGTTFVGSVNNIDNVPSSFRSHMRFEILVPVPSEAQRLRIFQWYLSSHELNRDVQQKVPVSYMDNISFSSLSSYSAGLTPLDIKSIVETARMTATARFYQESKKCGWLPQSILITQEDLSKATSKARNEFSVSIGAPQIPNVTWDDIGGIDFVKGEILDTIDMPLKHPELFTSGMKKRSGILFYGPPGTGKTLMAKAIATNFSLNFFSVKGPELLNMYIGESEANVRRVFQKAREAKPCVIFFDEIDSVAPKRGNQGDSGGVMDRIVSQLLAELDGMSTDADGVFVIGATNRPDLLDEALLRPGRFDKLLYLGIPDTDTKQLNILEALTRKFVLDNDVKLIELAKLCPFNYTGADFYALCSDAMLNAMSRIARMVEKKVSQHNELTGENISTRRWFDKIATKEDTKVVVKMEDFLKAQEQLTPSVSRAELNHYEAVRANFEGA
 |  | binds | Δ188Pex1 (N-terminal truncation mutant of Pex1) (domain or fragment, yeast, UniProt P24004 189-1043, looked up, Pex1, yeast, gene segment corresponding to amino acids 189-1,043; source: S. cerevisiae, overexpressed (2% galactose), purified (IgG Sepharose, TEV cleavage, glycerol gradient); not shown: protein A (ProA), C-terminal, cleaved) RLVKAEYGHSNKTILKNGAIQLLKKVILRSTVCKMDFPKDNLFVVYISDGAQLPSQKGYASIVKCSLRQSKKSDSDNKSVGIPSKKIGVFIKCDSQIPENHIALSSHLWDAFFTHPMNGAKIKLEFLQMNQANIISGRNATVNIKYFGKDVPTKSGDQYSKLLGGSLLTNNLILPTEQIIIEIKKGESEQQLCNLNEISNESVQWKVTQMGKEEVKDIIERHLPKHYHVKETGEVSRTSKDEDDFITVNSIKKEMVNYLTSPIIATPAIILDGKQGIGKTRLLKELINEVEKDHHIFVKYADCETLHETSNLDKTQKLIMEWCSFCYWYGPSLIVLDNVEALFGKPQANDGDPSNNGQWDNASKLLNFFINQVTKIFNKDNKRIRVLFSGKQKTQINPLLFDKHFVSETWSLRAPDKHARAKLLEYFFSKNQIMKLNRDLQFSDLSLETEGFSPLDLEIFTEKIFYDLQLERDCDNVVTRELFSKSLSAFTPSALRGVKLTKETNIKWGDIGALANAKDVLLETLEWPTKYEPIFVNCPLRLRSGILLYGYPGCGKTLLASAVAQQCGLNFISVKGPEILNKFIGASEQNIRELFERAQSVKPCILFFDEFDSIAPKRGHDSTGVTDRVVNQLLTQMDGAEGLDGVYILAATSRPDLIDSALLRPGRLDKSVICNIPTESERLDILQAIVNSKDKDTGQKKFALEKNADLKLIAEKTAGFSGADLQGLCYNAYLKSVHRWLSAADQSEVVPGNDNIEYFSINEHGRREENRLRLKTLLQQDVVHETKTSTSAASELTAVVTINDLLEACQETKPSISTSELVKLRGIYDRFQKDRNGEMPNGENSIDIGSRLSLM
